The values below are quoted from earlier work in patent publication US9084831B2, “Molecular probe precursor for imaging of pancreatic islet, and use thereof” (Kyoto University, priority 2008, dated 2015).

The conditions of this data set: mouse, in vivo, iv; cited from earlier work.

As for “^125I labeled exendin(9-39): exendin(9-39), a GLP-1R ligand, 125I-labeled by Bolton-Hunter labeling (PerkinElmer NEX 335)”, the “accumulation and binding among organs” value is “accumulates selectively and specifically in the pancreas among organs”.
